In article PMC10397247 one finds interaction score data, which are given here for three molecules.

One experiment deals with T1, 4H2162-bA.
T1 chain: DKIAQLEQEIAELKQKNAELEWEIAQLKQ
Briefly: two-hybrid library CCNG1.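 Also: natural log of median RNA to DNA barcode read ratio; higher means stronger binding.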

The target in another experiment is T2, 4H2233-bA.
T2 chain: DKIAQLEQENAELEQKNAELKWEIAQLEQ
In words: two-hybrid library CCNG1.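 Also: natural log of median RNA to DNA barcode read ratio; higher means stronger binding.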

In another experiment the target is T3, 4H2253-bA.
T3 chain: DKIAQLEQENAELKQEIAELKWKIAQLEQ
Briefly: two-hybrid library CCNG1.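 Also: natural log of median RNA to DNA barcode read ratio; higher means stronger binding.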

For another experiment, the target named is T4, 4H235-bA.
T4 chain: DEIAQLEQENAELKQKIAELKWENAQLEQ
In words: two-hybrid library CCNG1.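 Also: natural log of median RNA to DNA barcode read ratio; higher means stronger binding.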

Another experiment addresses T5, 4H2444-bA.
T5 chain: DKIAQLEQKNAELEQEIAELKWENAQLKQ
In words: two-hybrid library CCNG1.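 Also: natural log of median RNA to DNA barcode read ratio; higher means stronger binding.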

In a further experiment the target is T6, 4H2518-bA.
T6 chain: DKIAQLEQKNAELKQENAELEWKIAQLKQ
Briefly: two-hybrid library CCNG1.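 Also: natural log of median RNA to DNA barcode read ratio; higher means stronger binding.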

The next experiment addresses T7, 4H2585-bA.
T7 chain: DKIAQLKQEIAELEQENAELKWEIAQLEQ
Briefly: two-hybrid library CCNG1.

In another experiment the target is T8, 4H264-bA.
T8 chain: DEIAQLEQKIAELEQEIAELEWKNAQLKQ
Briefly: two-hybrid library CCNG1.

The next experiment addresses T9, 4H2760-bA.
T9 chain: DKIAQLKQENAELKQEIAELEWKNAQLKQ
Briefly: two-hybrid library CCNG1.

For another experiment, the target named is T10, 4H2859-bA.
T10 chain: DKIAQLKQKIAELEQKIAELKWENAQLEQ
In words: two-hybrid library CCNG1.

The target of the next experiment is T11, 4H2931-bA.
T11 chain: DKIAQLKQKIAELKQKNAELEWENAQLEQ
In words: two-hybrid library CCNG1.

A further experiment has as its target T12, 4H3041-bA.
T12 chain: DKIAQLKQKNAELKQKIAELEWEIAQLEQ
In words: two-hybrid library CCNG1.

Another experiment deals with T13, 4H3297-bA.
T13 chain: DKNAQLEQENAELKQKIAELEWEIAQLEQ
Briefly: two-hybrid library CCNG1.

The target of the next experiment is T14, 4H3364-bA.
T14 chain: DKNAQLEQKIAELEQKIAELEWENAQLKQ
Briefly: two-hybrid library CCNG1.

The target of another experiment is T15, 4H3381-bA.
T15 chain: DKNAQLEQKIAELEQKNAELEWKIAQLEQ
Briefly: two-hybrid library CCNG1.

A further experiment addresses T16, 4H349-bA.
T16 chain: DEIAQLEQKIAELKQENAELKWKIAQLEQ
Briefly: two-hybrid library CCNG1.

The target in a further experiment is T17, 4H56-bA.
T17 chain: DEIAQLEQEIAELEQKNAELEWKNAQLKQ
In words: two-hybrid library CCNG1.

For the next experiment, the target named is T18, 4H730-bA.
T18 chain: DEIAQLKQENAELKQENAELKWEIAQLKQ
In words: two-hybrid library CCNG1.

In another experiment the target is T19, 4H796-bA.
T19 chain: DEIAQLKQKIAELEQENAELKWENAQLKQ
In words: two-hybrid library CCNG1.

Another experiment addresses T20, 4H855-bH.
T20 chain: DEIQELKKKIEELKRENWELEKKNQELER
Briefly: two-hybrid library CCNG1.

A further experiment deals with T21, 4H932-bA.
T21 chain: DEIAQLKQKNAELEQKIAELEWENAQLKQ
Briefly: two-hybrid library CCNG1.

The next experiment addresses T22, 4H949-bA.
T22 chain: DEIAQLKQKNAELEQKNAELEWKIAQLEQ
Briefly: two-hybrid library CCNG1.

In the next experiment the target is T23, 4H175-AA.
T23 chain: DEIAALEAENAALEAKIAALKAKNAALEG
Briefly: two-hybrid library CCmax.

Another experiment deals with T24, 4H1765-AA.
T24 chain: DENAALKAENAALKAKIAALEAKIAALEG
Briefly: two-hybrid library CCmax. The conditions noted are these: mean of both orientations.

The target of the next experiment is T25, 4H1821-AA.
T25 chain: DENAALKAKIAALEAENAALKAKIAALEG
In words: two-hybrid library CCmax. The conditions noted are these: mean of both orientations.

A further experiment addresses T26, 4H1828-AA.
T26 chain: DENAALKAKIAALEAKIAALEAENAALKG
In words: two-hybrid library CCmax. The conditions noted are these: mean of both orientations.

In another experiment the target is T27, 4H1930-AA.
T27 chain: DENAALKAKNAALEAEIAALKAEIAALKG
In words: two-hybrid library CCmax. The conditions noted are these: mean of both orientations.

A further experiment concerns the target T28, 4H2124-AA.
T28 chain: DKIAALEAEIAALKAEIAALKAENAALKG
In words: two-hybrid library CCmax. The note with it: mean of both orientations.

The next experiment addresses T29, 4H2165-AA.
T29 chain: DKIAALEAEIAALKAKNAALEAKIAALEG
Briefly: two-hybrid library CCmax. The note with it: mean of both orientations.

A further experiment addresses T30, 4H2253-AA.
T30 chain: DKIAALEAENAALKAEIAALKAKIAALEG
Briefly: two-hybrid library CCmax. The conditions noted are these: mean of both orientations.

The target in a further experiment is T31, 4H2330-AA.
T31 chain: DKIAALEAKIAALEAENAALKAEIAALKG
In words: two-hybrid library CCmax. The conditions noted are these: mean of both orientations.

The target of the next experiment is T32, 4H2343-AA.
T32 chain: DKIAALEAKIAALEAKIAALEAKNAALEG
In words: two-hybrid library CCmax. The note with it: mean of both orientations.

The target of a further experiment is T33, 4H2466-AA.
T33 chain: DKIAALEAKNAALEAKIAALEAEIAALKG
Briefly: two-hybrid library CCmax. The conditions noted are these: mean of both orientations.

The next experiment concerns the target T34, 4H249-AA.
T34 chain: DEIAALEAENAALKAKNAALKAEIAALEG
Briefly: two-hybrid library CCmax. The note with it: mean of both orientations.

The target of the next experiment is T35, 4H2592-AA.
T35 chain: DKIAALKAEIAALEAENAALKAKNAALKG
In words: two-hybrid library CCmax. The note with it: mean of both orientations.

A further experiment has as its target T36, 4H2732-AA.
T36 chain: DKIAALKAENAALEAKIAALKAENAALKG
Briefly: two-hybrid library CCmax. The conditions noted are these: mean of both orientations.

A further experiment deals with T37, 4H2774-AA.
T37 chain: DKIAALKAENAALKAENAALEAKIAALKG
Briefly: two-hybrid library CCmax. The note with it: mean of both orientations.

Another experiment deals with T38, 4H2931-AA.
T38 chain: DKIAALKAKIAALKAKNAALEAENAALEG
Briefly: two-hybrid library CCmax. The note with it: mean of both orientations.

In the next experiment the target is T39, 4H3001-AA.
T39 chain: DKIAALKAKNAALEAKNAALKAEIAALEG
In words: two-hybrid library CCmax. The conditions noted are these: mean of both orientations.

A further experiment concerns the target T40, 4H3015-AA.
T40 chain: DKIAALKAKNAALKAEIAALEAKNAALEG
In words: two-hybrid library CCmax. The conditions noted are these: mean of both orientations.

For a further experiment, the target named is T41, 4H3073-AA.
T41 chain: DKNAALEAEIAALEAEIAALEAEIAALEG
In words: two-hybrid library CCmax.

The next experiment has as its target T42, 4H3438-AA.
T42 chain: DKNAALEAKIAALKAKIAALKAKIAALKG
Briefly: two-hybrid library CCmax. The note with it: mean of both orientations.

For the next experiment, the target named is T43, 4H347-AA.
T43 chain: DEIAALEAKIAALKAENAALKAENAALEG
In words: two-hybrid library CCmax.

The next experiment deals with T44, 4H406-AA.
T44 chain: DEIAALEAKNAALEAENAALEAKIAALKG
Briefly: two-hybrid library CCmax. The note with it: mean of both orientations.

A further experiment has as its target T45, 4H452-AA.
T45 chain: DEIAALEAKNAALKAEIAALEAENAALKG
Briefly: two-hybrid library CCmax. The note with it: mean of both orientations.

The target in a further experiment is T46, 4H56-AA.
T46 chain: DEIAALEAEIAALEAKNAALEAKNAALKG
Briefly: two-hybrid library CCmax. The conditions noted are these: mean of both orientations.

A further experiment deals with T47, 4H_APH.
T47 chain: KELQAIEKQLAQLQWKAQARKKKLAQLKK
Briefly: two-hybrid library CCmax.

In another experiment the target is T48, 4H_BCR.
T48 chain: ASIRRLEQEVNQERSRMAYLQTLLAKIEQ
In words: two-hybrid library CCmax. The note with it: mean of both orientations.

In the next experiment the target is 4H_GCN4. In words: two-hybrid library CCmax.
Sequence of 4H_GCN4 (chain, as listed by the source): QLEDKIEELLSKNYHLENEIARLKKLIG
Another experiment deals with GCN2_T. In words: two-hybrid library CCmax.
The target in another experiment is T49, O11-bH.
T49 chain: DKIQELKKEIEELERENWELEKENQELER
Briefly: two-hybrid library CCNG1.

A further experiment has as its target T50, O12-bH.
T50 chain: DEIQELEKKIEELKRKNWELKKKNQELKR
In words: two-hybrid library CCNG1.

The target in another experiment is T51, O13-bH.
T51 chain: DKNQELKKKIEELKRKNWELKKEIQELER
In words: two-hybrid library CCNG1.

The target of the next experiment is T52, O14-bH.
T52 chain: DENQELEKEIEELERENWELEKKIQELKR
Briefly: two-hybrid library CCNG1.

A further experiment addresses T53, O15-bH.
T53 chain: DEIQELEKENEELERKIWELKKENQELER
In words: two-hybrid library CCNG1.

In a further experiment the target is T54, O16-bH.
T54 chain: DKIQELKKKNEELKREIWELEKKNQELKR
Briefly: two-hybrid library CCNG1.

The target of the next experiment is T55, O2-bH.
T55 chain: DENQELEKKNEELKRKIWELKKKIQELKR
Briefly: two-hybrid library CCNG1.

In the next experiment the target is T56, O3-bH.
T56 chain: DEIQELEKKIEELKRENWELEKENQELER
In words: two-hybrid library CCNG1.

The target of another experiment is T57, O4-bH.
T57 chain: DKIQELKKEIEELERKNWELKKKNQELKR
In words: two-hybrid library CCNG1.

In a further experiment the target is T58, O5-bH.
T58 chain: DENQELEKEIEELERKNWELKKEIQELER
In words: two-hybrid library CCNG1.

Another experiment deals with T59, O6-bH.
T59 chain: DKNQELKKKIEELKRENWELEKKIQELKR
Briefly: two-hybrid library CCNG1.

For a further experiment, the target named is T60, O7-bH.
T60 chain: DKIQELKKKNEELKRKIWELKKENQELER
Briefly: two-hybrid library CCNG1.

The target in another experiment is T61, O8-bH.
T61 chain: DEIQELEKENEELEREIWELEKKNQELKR
In words: two-hybrid library CCNG1.

In another experiment the target is T62, O9-bH.
T62 chain: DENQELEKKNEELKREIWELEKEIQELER
Briefly: two-hybrid library CCNG1.

For DKIAQLEQEIAELKQKNAELEWEIAQLKQ [4H2162-bA], the interaction score in the experiment with 4H2162-bA is 0.667; with 4H2233-bA, 0.431; in the experiment with 4H2253-bA, -0.158; with 4H235-bA, 0.118; in the experiment with 4H2444-bA it was 0.102; in the experiment with 4H2518-bA, 0.642. Further, the interaction score in the experiment with 4H2585-bA was -0.85; with 4H264-bA, -1.08; in the experiment with 4H2760-bA it was -0.382; with 4H2859-bA it was 0.326; with 4H2931-bA it was 1.13; with 4H3041-bA, 1.37. Besides, the interaction score with 4H3297-bA was -0.125; with 4H3364-bA, -0.464; with 4H3381-bA it was -1.2; with 4H349-bA, 0.82; in the experiment with 4H56-bA, 0.371; with 4H730-bA it was 0.193. In addition, the interaction score with 4H796-bA is -1.31; with 4H855-bH it was -2.4; in the experiment with 4H932-bA it was -1.48; with 4H949-bA, -0.448.
Turning to DEIAALEAENAALEAKIAALKAKNAALEG [4H175-AA], the interaction score was -0.721 with 4H175-AA; -1.18 with 4H1765-AA; -1.36 in the experiment with 4H1821-AA; -1.69 with 4H1828-AA; -1.75 with 4H1930-AA; -1.39 with 4H2124-AA. The interaction score with 4H2165-AA was -1.43; with 4H2253-AA, -0.981; with 4H2330-AA, -1.68; with 4H2343-AA, -1.82; with 4H2466-AA, -1.58; with 4H249-AA, 0.000294. The interaction score is -1.32 with 4H2592-AA; -0.776 with 4H2732-AA; -0.332 with 4H2774-AA; -1.11 with 4H2931-AA; -0.307 with 4H3001-AA; 2.21 in the experiment with 4H3015-AA. The interaction score in the experiment with 4H3073-AA was -2.69; with 4H3438-AA, -0.317; with 4H347-AA, -1.44; in the experiment with 4H406-AA, -1.39; with 4H452-AA, 0.385; in the experiment with 4H56-AA it was -1.56. Further, the interaction score is -0.714 with 4H_APH, -2.06 in the experiment with 4H_BCR, -1 with 4H_GCN4 and -0.991 with GCN2_T.
As to DKIQELKKEIEELERENWELEKENQELER [O11-bH], the interaction score with O11-bH was -0.129; in the experiment with O12-bH it was 1.01; in the experiment with O13-bH, -0.515; with O14-bH it was -0.342; with O15-bH, -0.515; with O16-bH, -0.352. The interaction score in the experiment with O2-bH is -1.24; with O3-bH it was 0.233; in the experiment with O4-bH it was 1.29; in the experiment with O5-bH it was -3.76; with O6-bH it was -0.451; in the experiment with O7-bH, 0.102. For the same molecule, the interaction score in the experiment with O8-bH is -0.273; with O9-bH, -1.15.
